For assay [1], the target named is partially deglycosylated Fc (mouse IgG3 Fc domain treated with a mixture of endoglycosidases) (mouse). Kind of assay: SPR.
The target of assay [2] is commercial immunoglobulin containing Fc. Kind of assay: SPR.

B1: mouse Fc receptor (FcR gamma I) (receptor)
chain: EVVNATKAVITLQPPWVSIFQKENVTLWCEGPHLPGDSSTQWFINGTAVQISTPSYSIPEASFQDSGEYRCQIGSSMPSDPVQLQIHNDWLLLQASRRVLTEGEPLALRCHGWKNKLVYNVVFYRNGKSFQFSSDSEVAILKTNLSHSGIYHCSGTGRHRYTSAGVSITVKELFTTPVLRASVSSPFPEGSLVTLNCETNLLLQRPGLQLHFSFYVGSKILEYRNTSSEYHIARAEREDAGFYWCEVATEDSSVLKRSPELELQVLGPQSSAPVWFHILFYLSVGIMFSLNTVLYVKIHRLQREKKYNLEVPLVSEQGKKANSFQQVRSDGVYEEVTATASQTTPKEAPDGPRSSVGDCGPEQPEPLPPSDSTGAQTSQS
Take B1: the Kd (commonly the equilibrium constant for the complex coming apart) was 1330 nM in assay [1] and 384 nM in assay [2].

Values taken from article PMC3954559.
